Measurements: paper doi:10.1101/2023.01.26.525744

Columns and labels:
Assay in all cases: NMR titration
[1] = biological target: paxillin LIM2/3 tandem domain (aa380-499) (human) (UniProt P49023)
[2] = biological target: cytoplasmic tail of human integrin β3 (aa748-788) (human) (UniProt P05106)
[3] = biological target: cytoplasmic tail of human integrin β1 (aa758-798) (human) (UniProt P05556)
Sequence of UniProt P05556 (P05556 758-798): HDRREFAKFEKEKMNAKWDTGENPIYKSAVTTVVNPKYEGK

Row | Substance | Kd [1] [µM] | Kd [2] [µM] | Kd [3] [µM]
1 | cytoplasmic tail of human integrin β3 (aa748-788) (from UniProt P05106 748-788) (domain or fragment) | 532 | – | –
2 | paxillin LIM2/3 tandem domain (aa380-499) (from UniProt P49023-2 380-499) (domain or fragment) | – | 528 | 52
